Measurements taken from the RNAGym collection of RNA variant scans (doi:10.1073/pnas.2313332121).

B1: TPR t1 (parent)
chain: GACCAAUCUGCCCUCAGAGCUCGAGAACAUCUUCGGAUGCAGAGGAGGCAGGCUUCGGUGGCGCGAUAGCGCCAACGUCCUCAACCUCCAAUGCAUCCCACCACAUGAUGAUGCCUGAAGAGCCUUGGUUUUUUG

Variants of: B1
Experiment: polymerase ribozyme fitness, log enrichment relative to wild type (log ratio); higher = more active; in vitro selection for triplet polymerase activity
Method in brief: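 To select mutant libraries of each subunit of a heterodimeric triplet polymerase ribozyme, built by PCR and transcribed, each was annealed with a biotinylated primer, partner subunit and triplets, then incubated frozen at −7 °C. Extended constructs were gel-excised, captured on streptavidin beads and amplified by RT-PCR, in one round carried out in triplicate. Illumina sequencing of input and output libraries kept genotypes with ≥10 input reads and ≥1 read per output. Fitness is the base-2 logarithm of genotype enrichment relative to wild-type enrichment, from inverse-variance-weighted replicate averages.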

Variant	polymerase ribozyme fitness (log ratio)
A26G C89G	-3.55
C22G G61U C124A	-1.97
A26G C114U	-3.27
A24C G39A U55C C104A C124G	-5.87
G25U G36U	-6.39
C22U A74U C101A	-5.04
A24G C53U C62U C89U G113A	-5.19
G25A C56A	-5.23
C22U G120A	-3.35
A26G U112A	-0.933
A24C C73A	-6.46
C22G G63A	-4.12
C22G G45U C56G A111U	-3.8
A26C G39U C124G	-4.33
C22U A84C	-4.07
A26G A37U C53G	-3.12
A26U C73U U81A	-3.86
C22U C28U C88G	-7.29
G25C C53A	-6.51
C22U G36A C76G	-5.14
A26U A66G U112G	-5.69
C22U G45A	-4.02
C22U G45U	-4.99
A24G U38G C56A C80A	-5.92

Variant	polymerase ribozyme fitness (log ratio)
G23A C97U A121U	-4.57
A27C C56G U78C C80U U81A	-3.58
A27C U112C G120C U126C U131A	-3.22
G25A C73A	-6.13
A27C C89U	-4.35
G23A G71A	-5.75
C22U C56A G69U U78C	-3.41
A26U C53U	-3.26
A26G G77U	-2.79
A24U U30G G63U C102G	-5.42
C22U G45U C72A	-4.82
A24G G60A C80U C88A	-4.67
A26U C62U U129A	-5.15
A26U A37C G77A C124G	-1.36
A26C A43G G63C G69A C115G	-4.47
G23A C56U G58C C70U C104G G122A	-7.86
C22G A111C	-3.66
A24G G117C G128A	-6.86
C22U C53G	-4.85
C22U C53A	-4.52
A24G G45C	-3.46
C22U G113A	-4.09
C22U G113U	-5.27
A24G G61U C86G	-3.34

Variant	polymerase ribozyme fitness (log ratio)
G23C U30C G42U G69A U78G A105C C115G	-7.04
A24G U54G G57C C72U C73G C124U	-3.92
A24G A26G A90C C115U	-2.12
A27C C62A A119G A121U	-2.98
A27G C62G A83G C86U	-5.4
A26U U96A U116G A121G	-3.67
G23A C56U	-3.66
C22G G39A C56U	-3.12
C22U C56A	-5.17
A26C C34U G36U C72A	-6.66
A24C G61A	-6.26
C22G G51A U81A C115U U130A	-5.32
A26U G60U U78C	-3.09
G25U A46G	-6.02
G25A A26G A46U G63A A118C G120A	-5.5
A24U C124A	-3.28
A24U G39A C72A U112C	-7.11
A24G G51U G69A G113C G120U	-6.67
C22U C114A	-4.76
A26G C40U G63C U81C U130A	-4.66
C22U U129A	-5.14
A24G G69C C85G	-4.96
A26G G61A C82A U112A U131C	-0.172
G25C C70A	-7.32

Variant	polymerase ribozyme fitness (log ratio)
A24C C124A	-5.24
A26U C89A	-6.44
G25U C56A	-4.45
G25C G69U	-4.39
A27C G44C C73G	-5.57
A24U G39U G60U C115A U129C	-6.65
C22G G69A A90U U106A A111U	-4.92
A26U G71A C82U	-4.08
A26G C28G C104U	-2.85
A27G A50G U81A	-1.56
A26G G71A A84C C89U G93C C114U	-6.05
A26C G61A	-3.85
A26U U87G	-2.62
A26G G45A U78G C124U U129G	-4.5
C22G G36C G42U A91U U112A U129G	-4.65
C22G C72G	-2.12
C22G A27C U59A A95G	-3.9
A24G A90C	-3.03
A26G C72A C86G A111U G122U	-3.76
A24G A27G G120A	-3.91
A24G C115U	-2.59
A26G U78C U106A G113U C115A	-5.3
C22U U78A U106G G120C	-5.48
C22U G57A G63U	-5.87

Variant	polymerase ribozyme fitness (log ratio)
A26C G47U C56U U112C	-5.64
A26U U81A	-4.77
C22G C73A G93A	-4.3
A26C G120C G127A	-5.53
A24G A43G	-3.13
A26G G36U C82G	-4.05
C22U C101A	-4.34
A26G U133G	-2.68
C22U G48U G71U C94A	-6.57
A26U U130A	-3.88
A27G C49A	-2
C22U A90G C101A C114A	-5.96
A26G G69U C70A G113U	-4.8
A27C C53G	-2.64
A27G A50G C72U U81A	-2
G25U C64G C88A G110A G120C C123U	-6.08
C22U A46C G61A	-4.91
C22G C53G G63C G113U	-5.64
A27G C56A	-2.09
A26G C40U G63C C79A C101U G117A	-5.91
A26U C53U G69C C115G G117C U133G	-6.29
A24G G44U C64U U133G	-3.26
A24G U112G	-1.29
A27C C49G	-4.07

Variant	polymerase ribozyme fitness (log ratio)
C22G A103U	-4.6
C22U A95G	-3.7
A26U A83C	-3.24
A26G A37U C49U G120U	-2.45
A26U C56G	-3.48
G23U G58A G60C G120C	-7.23
A24G U81A	-2.64
G23U C70A A91G G107U C114U	-5.99
A24U U112A	-4.52
G23C A26G C82U G120C	-4.02
A26U C80U	-4.31
A27G C34U	-4.85
C22G G48C C85G U112G	-3
G25U C72U G110U C114U	-6.32
G23U G42U U54G C64G G93C G117C	-6.49
C22G A26C C94A A95U A119G	-4.33
G23C A121G	-6.91
C22G A46U C76U C98U	-5.32
A26G A105G	-4.04
A27G C49G C64U	-2.51
A26U A41C A46U C101U	-6.28
A26U G35U C53U U112C C114U G117A	-7.18
A26U C72A U129A	-4.07
A26U G93U	-3.09

Variant	polymerase ribozyme fitness (log ratio)
A26C G117U A119U	-7.54
C22G G23A C89U C114U	-4.41
A26G G36A A108U C123G	-5.15
A26U C53U C56U	-3.75
A26G C34U C85U C124G	-2.34
A24G C56G G113A G120A G128A	-7.42
A26U C40U C64U	-3.97
A24G A27G	-4.03
C22A U87A	-4.86
A24G U109C	-5.04
C22G G45A C88G	-4.78
A24C C31G U32G C62U C114G	-8.07
C22G U32G C70G C124A	-5.41
A26U G69U C79G	-3.29
A24G A84U	-1.7
G23U C73G	-4.76
C22U C72G	-4.14
A27G A46U G57C U81A A83C C104A G117C G122A	-7.94
G23C G69U	-5.11
A26G G39A C49U C64U	-3.32
A26U G48U	-3.85
G23A G63C	-3.02
C22U C64U	-3.81
